The source of these data is patent US20020045205A1, “Method for autoactivation of procaspase 8” (priority 1998, published 2002).

Substrate in data set [1]: CC(=O)N[C@@H](CC(=O)O)C(=O)N[C@@H](CCC(=O)O)C(=O)N[C@H](C(=O)N[C@@H](CC(=O)O)C(=O)Nc1ccc([N+](=O)[O-])cc1)C(C)C
Description: Substrate Km in caspase 8 enzyme assay. The format is biochemical, human. The note with it: other: 100 mM sodium phosphate/10 mM Tris/100 mM DTT, pH 7.50, 37° C., pH 7.5. The protocol:
Unless otherwise indicated, all specific enzyme activity measurements described herein were made using the Ac-DEVD-pNA substrate. […] Initial rates were determined as follows: 100 μl of 1M DTT, 790 μl 100 mM sodium phosphate/10 mM Tris, pH 7.50, and 10 μl of caspase 8 sample solution (for protein concentrations near 0.5 mg/ml) were added to a quartz semi-micro cuvette.

A short description of data set [2]: Cleavage of chromogenic and fluorogenic caspase substrates. Conditions: substrates Ac-DEVD-pNA, Ac-IETD-pNA, Ac-DEVD-AMC. The class given is biochemical, human. The text has this:
Enzyme activity of caspase 8 preparations was monitored using the chromogenic substrates Ac-DEVD-pNA or Ac-IETD-pNA or the fluorogenic substrates Ac-DEVD-AMC or Ac-IETD-AMC. For the chromogenic substrates, kinetic release of para-nitroaniline (pNA) was followed at 405 nm using either a Lambda 6 spectrophotometer or in a microtitre plate format using a Molecular Devices Thermomax plate reader with 405 nm wavelength filter. Kinetic enzyme assays monitoring the release of 7-amino-4-methyl-coumarin from the fluorogenic substrates were conducted using a Molecular Devices fmax plate reader with Ex=355 nm and Em=460 nm.

The term Km denotes the substrate concentration at which the rate is half of its maximum.

B1: caspase 8 (Homo sapiens) (protein)
chain 1: SPREQDSESQTLDKVYQMKSKPRGYCLIINNHNFAKAREKVPKLHSIRDRNGTHLDAGALTTTFEELHFEIKPHDDCTVEQIYEILKIYQLMDHSNMDCFICCILSHGDKGIIYGTDGQEAPIYELTSQFTGLKCPSLAGKPKVFFIQACQGDNYQKGIPVETD
chain 2: LSSPQTRYIPDEADFLLGMATVNNCVSYRNPAEGTWYIQSLCQSLRERCPRGDDILTILTEVNYEVSNKDDKKNMGKQMPQPTFTLRKKLVFPSD
notes: the 19 kDa peptide (S ^18PREQD . . . IPVETD^181); the 11 kDa chain (L^192SSPQ . . . LVFPSD^286); (His)6 (MRGS(H)6 leader, 12-residue prosegment from pQE30) (N, cleaved yes); made in house; host or cells: E. coli M15 (pREP4), vector pQE30
For B1, in data set [1], the Km came to 167 µM.

B2: Concentrated, but unprocessed, protein: recombinant procaspase 8 polypeptide lacking the DED prodomain, with (His)6 tag, SEQ ID NO:1 (protein, listed as Homo sapiens)
chain: MRGSHHHHHHGSMTISDSPREQDSESQTLDKVYQMKSKPRGYCLIINNHNFAKAREKVPKLHSIRDRNGTHLDAGALTTTFEELHFEIKPHDDCTVEQIYEILKIYQLMDHSNMDCFICCILSHGDKGIIYGTDGQEAPIYELTSQFTGLKCPSLAGKPKVFFIQACQGDNYQKGIPVETDSEEQPYLEMDLSSPQTRYIPDEADFLLGMATVNNCVSYRNPAEGTWYIQSLCQSLRERCPRGDDILTILTEVNYEVSNKDDKKNMGKQMPQPTFTLRKKLVFPSD
modifications: (His)6 tag
With B2, the “activity against caspase substrates” value in data set [2] is reported as “no measurable activity”.
